From patent publication US12076390 (Dana-Farber, dated 2024)

What was measured:
[1] = target: HA of A/Vietnam/1203/04 on pseudotyped virus (H5-VN04 pseudovirus) (influenza A virus A/Vietnam/1203/04 …); experiment: cell-based or functional assay
[2] = target: HA on infectious virus A/Brisbane/10/07 (H3N2-BR07) (influenza A virus A/Brisbane/10/07 …); experiment: cell-based or functional assay
[3] = target: Cell surface-expressed HA of A/Aichi/2/68 (H3-A2/68) (influenza A virus A/Aichi/2/68 (H3N2), UniProt P03437 17-566); experiment: flow cytometry on HA-transfected cells
[4] = target: DTT reduced, trimeric HA2 (tHA2) of surface-expressed H3-A2/68 (influenza A virus A/Aichi/2/68 (H3N2), UniProt P03437 346-566); experiment: flow cytometry on HA-transfected cells after trypsin, pH 4.9 and DTT
[5] = target: Recombinant full length HA of H1 A/Solomon Islands/3/06 (H1-SI06) (influenza A virus A/Solomon …); experiment: recombinant HA; footnote says SPR biosensor, methods describe BLI
[6] = target: Recombinant full length HA of H1 A/Puerto Rico/8/34 (H1-PR8) (influenza A virus A/Puerto Rico/8/34 …, UniProt P03452 18-565); experiment: as above
[7] = target: Recombinant full length HA of H14 A/mallard/Astrakhan/263/82 (H14-AS82) (influenza A virus …, UniProt P26136 18-568); experiment: as above

B1: 3I14 IgG1 (antibody, V domains shown)
VH: QVQLLESGGGVVQPGRSLRLSCAASGFTFSNYGMHWVRQAPGKGLEWVAIISFDGSKKYYANSVKGRSTISRDNSKNTLSLQMNSLGPEDTALYYCAKLPSPYYFDSRFVWVAASAFHFWGQGILVTVSS
VL: NFMLTQPPSASGTPGQRVTISCSGSSSNIGGNTVHWFQQLPGTAPKLLIYTNSLRPSGVPDRFSGSKSGTSASLAISGLQSEDEADYYCAAWDDSLNGQVFGGGTKLTVL
[1]
  IC50, neutralization of H5-VN04 pseudovirus: 0.0816 µg/mL
  IC50, neutralization of pseudovirus: 2.14 µg/mL
[2]
  IC50, neutralization of infectious H3-BR07 virus: 0.305 µg/mL
[3]
  binding result: binds
[4]
  binding result: no binding
[5]
  Kd: 0.03 nM
[6]
  Kd: 0.08 nM
[7]
  Kd: 0.29 nM
